The target in assay [1] is T1, Human soluble IL-6R (human, UniProt P08887 20-358).
T1 construct: Soluble recombinant form; biotinylated in some assays; also called hIL-6R; human IL-6R
T1 sequence (looked up): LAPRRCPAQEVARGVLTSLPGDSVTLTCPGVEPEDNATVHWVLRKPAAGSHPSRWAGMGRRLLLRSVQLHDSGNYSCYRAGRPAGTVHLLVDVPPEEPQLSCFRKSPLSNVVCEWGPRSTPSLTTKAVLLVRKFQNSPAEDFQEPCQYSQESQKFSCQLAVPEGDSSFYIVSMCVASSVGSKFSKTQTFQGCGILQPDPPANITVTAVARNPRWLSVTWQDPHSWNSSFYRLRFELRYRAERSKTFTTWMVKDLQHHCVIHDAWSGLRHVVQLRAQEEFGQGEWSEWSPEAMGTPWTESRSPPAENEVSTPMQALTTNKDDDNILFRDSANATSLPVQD
Kind of assay: Alphascreen IL-6/IL-6R competition (IL-6R 0.3 nM, bio-IL-6 3 nM); row EC50 of the fit table, axis [competitor], M; blocked ligand IL-6. For orientation: Alpha assays give light when donor and acceptor beads are brought close together.

Assay [2] deals with T1, Human soluble IL-6R. Put plainly: Biacore, binding to IL-6R. In general terms: Surface plasmon resonance follows binding to a sensor surface in real time, without labels.
The target in the next assay is T2, Cyno IL-6R (cynomolgus monkey, UniProt A0A2K5WN54 60-396).
T2 construct: also called cynomolgus monkey IL-6R; recombinant cyno sIL-6R
T2 sequence: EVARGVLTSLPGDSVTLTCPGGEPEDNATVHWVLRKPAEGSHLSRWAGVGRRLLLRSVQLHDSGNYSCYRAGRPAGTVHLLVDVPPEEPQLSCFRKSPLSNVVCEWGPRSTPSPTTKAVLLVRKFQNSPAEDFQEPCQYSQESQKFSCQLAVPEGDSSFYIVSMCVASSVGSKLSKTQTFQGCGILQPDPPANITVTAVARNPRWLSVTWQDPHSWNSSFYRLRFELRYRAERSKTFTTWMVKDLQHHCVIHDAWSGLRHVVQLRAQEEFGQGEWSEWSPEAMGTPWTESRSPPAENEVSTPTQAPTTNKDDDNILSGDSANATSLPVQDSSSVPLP
Kind of assay: SPR Biacore 3000, cyno IL-6R amine-coupled to CM5.

Assay [3] deals with T3, Cyno plasma sIL-6R (cynomolgus monkey, UniProt A0A2K5WN54 60-396).
T3 construct: also called cynomolgus sIL-6R
T3 sequence: T2 sequence
Kind of assay: plasma potency ELISA, cyno plasma + human IL-6 50 ng/mL; sIL-6R captured on BN-12, bound IL-6 detected; blocked ligand IL-6. In general terms: ELISA stands for enzyme-linked immunosorbent assay.

Assay [4] deals with T4, Human plasma sIL-6R (human, UniProt P08887 20-355, limits assumed).
T4 construct: also called plasma-derived human IL-6R
T4 sequence (looked up): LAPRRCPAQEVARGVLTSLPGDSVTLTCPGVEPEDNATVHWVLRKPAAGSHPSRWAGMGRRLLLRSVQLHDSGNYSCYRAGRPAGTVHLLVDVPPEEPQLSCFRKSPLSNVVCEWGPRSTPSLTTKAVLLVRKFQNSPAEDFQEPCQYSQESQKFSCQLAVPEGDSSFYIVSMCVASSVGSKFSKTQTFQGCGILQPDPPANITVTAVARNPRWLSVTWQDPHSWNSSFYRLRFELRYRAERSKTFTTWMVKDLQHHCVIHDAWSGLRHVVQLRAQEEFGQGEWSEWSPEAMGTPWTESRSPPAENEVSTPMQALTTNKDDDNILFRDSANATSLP
Kind of assay: plasma potency ELISA, human plasma + human IL-6 50 ng/mL; sIL-6R captured on BN-12, bound IL-6 detected; blocked ligand IL-6.

Assay [5] has as its target T1, Human soluble IL-6R. Put plainly: Alphascreen IL-6/IL-6R competition (IL-6R 0.3 nM, bio-IL-6 3 nM); row EC50 of the fit table, axis [competitor], M; blocked ligand IL-6. This is another data set of the same source.
The target in assay [6] is T1, Human soluble IL-6R. Put plainly: Alphascreen, inhibition of bio-IL-6 binding to IL-6R.
Description: Finally streptavidin donor beads were added and after 1 hour incubation the plate was read on the Envision microplate reader. Parental clones were included as reference.
The target in assay [7] is T1, Human soluble IL-6R. Put plainly: Alphascreen IL-6/IL-6R competition (IL-6R 0.3 nM, bio-IL-6 3 nM); row EC50 of the fit table, axis [competitor], M; blocked ligand IL-6. The source holds these as a separate data set.
Assay [8] has as its target T1, Human soluble IL-6R. Put plainly: Biacore T100; value marked estimated.
Assay [9] concerns the target T1, Human soluble IL-6R. Put plainly: Biacore T100, IL-6R covalently coupled.
In assay [10] the target is T4, Human plasma sIL-6R. Kind of assay: plasma potency assay, human plasma, 2.4 nM IL6; blocked ligand IL-6.
Description: (§1) All 5 affinity matured Nanobodies and the sequence optimized Nanobody were also tested in a plasma potency assay. […] TMB was used as substrate.
Assay [11] concerns the target T3, Cyno plasma sIL-6R. Kind of assay: plasma potency assay, cyno plasma, 2.4 nM IL6; blocked ligand IL-6.
Description: as §1
The target of assay [12] is T4, Human plasma sIL-6R. Put plainly: plasma potency assay, human plasma, 42 nM IL6; blocked ligand IL-6.
Description: as §1
The target of assay [13] is T1, Human soluble IL-6R. Kind of assay: Biacore T100.

Substitutions are numbered along the chain they refer to. Read-outs that look alike come from different tables or passages of the source.

For orientation: IC50 means the concentration that inhibits the measured activity by half. Lower therefore signals higher potency. By Kd is commonly meant the constant that tells how readily two partners part at equilibrium. Low values mean higher affinity, high ones lower affinity. The term koff denotes the rate constant with which the complex falls apart. Higher therefore signals fast dissociation. What is called kon is the rate constant with which the complex forms.

Description for Cyno IL-6R: Remaining reactive groups were inactivated. […] Each sample was injected for 4 min at a flow rate of 45 μl/min to allow for binding to chip-bound antigen. Next, binding buffer without Nanobody was sent over the chip at the same flow rate to allow for dissociation of bound Nanobody.

B1: IL6R74 (VHH)
VHH: EVQLVESGGGLVQPGGSLRLSCAASGFTFDDYDIGWFRQAPGKGREGVSGISSSDGNTYYADSVKGRFTISSDNAKNTLYLQMNSLRPEDTAVYYCAAEPPDSSWYLDGSPEFFKYWGQGTLVTVSS
Molecule B1 gave an IC50 with Human soluble IL-6R [1] of 0.133 nM. In addition, in the assay with Human soluble IL-6R [2], binding was characterised by a dissociation constant (Kd) of 0.2 nM, the koff came out at 0.000122 s⁻¹ and the kon worked out at 767000 M⁻¹ s⁻¹.

B2: IL6R201 (VHH)
VHH: B1 VHH with D30S, S72R
notes: also called tagless version of IL6R75; 16R201/75
For B2, in the assay with Cyno IL-6R, the Kd was 28.1 nM, the dissociation rate constant (koff) came to 0.00611 s⁻¹ and the kon was 218000 M⁻¹ s⁻¹. Also, the “IC50 (read off the curve)” value in the assay with Cyno plasma sIL-6R [3] was about 0.6 nM. For the same molecule, the “IC50 (read off the curve)” value with Human plasma sIL-6R [4] is about 0.04 nM.

B3: IL6R81 (VHH)
VHH: EVQLVESGGGLVQPGGSLRLSCAASGFTFDDYGMSWVRQAPGRATEWVSAISWNGNNTYYTESMKGRFTISRDNAKNTVYLQMNSLRPEDTAVYYCVKGSTAIVGVPPTYPDEYDYWGQGTLVTVSS
As for B3, the IC50 with Human soluble IL-6R [5] is 0.0747 nM. In the assay with Human soluble IL-6R [2], this molecule yielded a Kd of 0.4 nM, a koff of 0.000128 s⁻¹ and a kon of 320000 M⁻¹ s⁻¹.

B4: IL6R84 (VHH)
VHH: B3 VHH with R43K, A44G, T45L, V79L
B4 returned an IC50 with Human soluble IL-6R [5] of 0.465 nM. In the assay with Human soluble IL-6R [2], this molecule had a Kd of 5.4 nM, a koff of 0.00409 s⁻¹ and a kon of 762000 M⁻¹ s⁻¹.

B5: IL6R83 (VHH)
VHH: B3 VHH with V79L
B5 displayed an IC50 with Human soluble IL-6R [5] of 0.0779 nM. In the assay with Human soluble IL-6R [2], this molecule returned a Kd of 0.3 nM, a koff of 0.00012 s⁻¹ and a kon of 350000 M⁻¹ s⁻¹.

B6: IL6R82 (VHH)
VHH: B3 VHH with R43K, A44G, T45L
In the assay with Human soluble IL-6R [5], B6 returned an IC50 of 0.476 nM. In the assay with Human soluble IL-6R [2], the equilibrium dissociation constant (Kd) is 5.1 nM, the koff came out at 0.00314 s⁻¹ and the kon is 619000 M⁻¹ s⁻¹.

B7: IL6R61 (VHH)
VHH: EVQLVESGGGLVQPGGSLRLSCAASGSIFKVNAMGWYRQAPGKGRELVAGIISGGSTNYADSVKGRLTISRDNAKNTVYLQMNSLRPEDTAVYYCSFVTTNSDYDLGRDYWGQGTLVTVSS
On to B7, for which, in the assay with Human soluble IL-6R [2], binding was put at a Kd of 2 nM, the off-rate (koff) was 0.0017 s⁻¹ and the kon worked out at 850000 M⁻¹ s⁻¹. For the same molecule, the “fold difference of IC50 to IL6R03” value with Human soluble IL-6R [6] was at most 2 fold. The IC50 with Human soluble IL-6R [7] amounted to 0.336 nM.

B8: IL6R62 (VHH)
VHH: B7 VHH with L67F
In the assay with Human soluble IL-6R [2], B8 yielded a Kd of 2.2 nM, a koff of 0.00207 s⁻¹ and a kon of 929000 M⁻¹ s⁻¹. Moreover, the “fold difference of IC50 to IL6R03” value in the assay with Human soluble IL-6R [6] was at most 2 fold. In the assay with Human soluble IL-6R [7], the IC50 was found to be 0.28 nM.

B9: IL6R63 (VHH)
VHH: B7 VHH with V78L
In the assay with Human soluble IL-6R [2], B9 yielded a Kd of 3.7 nM, a koff of 0.00365 s⁻¹ and a kon of 990000 M⁻¹ s⁻¹. For the same molecule, the “fold difference of IC50 to IL6R03” value with Human soluble IL-6R [6] is about 4 fold. This molecule also yielded an IC50 with Human soluble IL-6R [7] of 0.65 nM.

B10: IL6R64 (VHH)
VHH: B7 VHH with S96A
In the assay with Human soluble IL-6R [2], B10 registered an off-rate (koff) of 0.001 s⁻¹. In addition, in the assay with Human soluble IL-6R [6], the “fold difference of IC50 to IL6R03” value was at most 2 fold. Further, the 50% inhibitory concentration (IC50) in the assay with Human soluble IL-6R [7] is 0.108 nM.

B11: PMP20E10 (VHH)
VHH: EVQLVESGGGLVQPGGSLRLSCAASGSVFKINVMAWYRQAPGKGRELVAGIVSGGSTSYADSVKGRFTISRDNAKNTLYLQMNSLRPEDTAVYYCAFITTESDYDLGRRYWGQGTLVTVSS
notes: not shown: c-myc and (His)6 tags
Take B11: the kon with Human soluble IL-6R [8] was about 1e+06 M⁻¹ s⁻¹. In the assay with Human soluble IL-6R [9], the koff was 3.3e-05 s⁻¹. Moreover, the IC50 with Human plasma sIL-6R [10] was determined as 0.13 nM; with Cyno plasma sIL-6R [11], 0.1 nM. In addition, the “IC50 (read off the curve)” value with Human plasma sIL-6R [12] was about 0.4 nM. For the same molecule, the Kd with Human soluble IL-6R [13] amounted to 0.033 nM.

B12: PMP20F6 (VHH)
VHH: B11 VHH with E101N
notes: as for B11
For the molecule B12, the kon with Human soluble IL-6R [8] was about 1e+06 M⁻¹ s⁻¹. The same molecule returned a koff in the assay with Human soluble IL-6R [9] of 3.3e-05 s⁻¹. Moreover, the IC50 in the assay with Human plasma sIL-6R [10] was determined as 0.13 nM; in the assay with Cyno plasma sIL-6R [11], 0.07 nM. In the assay with Human plasma sIL-6R [12], the “IC50 (read off the curve)” value is about 0.4 nM. The molecule also came in with a Kd with Human soluble IL-6R [13] of 0.033 nM.

B13: PMP21A10 (VHH)
VHH: B11 VHH with V28I, S53T
notes: as for B11
Take B13: the kon in the assay with Human soluble IL-6R [8] is about 1e+06 M⁻¹ s⁻¹. Moreover, the koff in the assay with Human soluble IL-6R [9] stood at 1.2e-05 s⁻¹. Also, the half-maximal inhibitory concentration (IC50) with Human plasma sIL-6R [10] is 0.1 nM; with Cyno plasma sIL-6R [11] it was 0.08 nM. The “IC50 (read off the curve)” value in the assay with Human plasma sIL-6R [12] is about 0.4 nM. The same molecule returned a Kd with Human soluble IL-6R [13] of 0.012 nM.

B14: PMP21D11 (VHH)
VHH: B11 VHH with S53T
notes: as for B11
Take B14: the kon with Human soluble IL-6R [8] is about 1e+06 M⁻¹ s⁻¹. The molecule also came in with a koff with Human soluble IL-6R [9] of 3.5e-05 s⁻¹. This molecule also yielded an IC50 in the assay with Human plasma sIL-6R [10] of 0.13 nM. Also, in the assay with Human plasma sIL-6R [12], the “IC50 (read off the curve)” value is about 0.4 nM. In addition, the Kd with Human soluble IL-6R [13] came out at 0.035 nM.

(Values after patent US20120077731A1 (Ablynx, published 2012).)
